The results in this text go back to article PMC12770486.

Data set [1] addresses T1, RAD51 (Homo sapiens, UniProt Q06609 1-339). The data set is described as follows: BLI. A general note: In BLI a coated tip is dipped into the sample, and binding shifts an interference pattern.
Data set [2] has as its target T1, RAD51. The data set is described as follows: FLIM.

T1 sequence (Q06609 whole entry): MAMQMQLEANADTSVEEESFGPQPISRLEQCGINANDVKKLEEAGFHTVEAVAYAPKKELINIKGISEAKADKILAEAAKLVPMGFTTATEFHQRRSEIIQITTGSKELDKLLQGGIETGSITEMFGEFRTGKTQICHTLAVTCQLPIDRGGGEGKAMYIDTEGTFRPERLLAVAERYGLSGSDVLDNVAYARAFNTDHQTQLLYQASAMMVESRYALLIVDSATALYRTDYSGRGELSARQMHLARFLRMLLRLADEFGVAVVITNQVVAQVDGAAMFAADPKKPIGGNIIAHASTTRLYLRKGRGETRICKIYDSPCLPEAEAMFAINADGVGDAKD

B1: rcApt (ssDNA)
DNA: GCCCCGCCCCGCCCC
Consider B1, for which, in the data set with RAD51 [1], the binding result is on record as “no binding”.

B2: Apt4 (ssDNA)
DNA: GCGGGGGCGGGG
What is called Kd is a measure of binding affinity in units of concentration. A higher Kd goes with weaker binding. On to B2, for which the affinity with RAD51 [1], expressed as Kd, was 0.413 ± 0.011 µM.

B3: Apt2 (ssDNA)
DNA: GGGGGGGGGGGGGGG
B3 showed a Kd in the data set with RAD51 [1] of 0.138 ± 0.004 µM. This Kd is about 3-fold lower than that of the molecule before.

B4: Apt5 (ssDNA)
DNA: CGGGCGGGCGGG
In turn, B4 showed a Kd with RAD51 [1] of 0.936 ± 0.039 µM.

B5: Apt1 (ssDNA)
DNA: GGGGCGGGGCGGGGC
In the data set with RAD51 [1], B5 came in with a Kd of 0.116 ± 0.014 µM.

B6: Apt1 Texas Red (ssDNA)
DNA: GGGGCGGGGCGGGGC
modifications: locked bases at both ends stated for in-cell assays; unclear for FLIM
In the case of B6, the binding result with RAD51 [2] is “binds”.

B7: Apt3 (ssDNA)
DNA: CGGCGCGGCGCGGCG
In turn, B7 returned a Kd in the data set with RAD51 [1] of 0.188 ± 0.013 µM.

B8: rcApt Texas Red (ssDNA)
DNA: GCCCCGCCCCGCCCC
modifications: locked bases at both ends stated for in-cell assays; unclear for FLIM
Take B8: the binding result with RAD51 [2] was “no binding”.
